This sample holds only a part of the variants without activity.
B1: TPR 5TU (parent)
chain: GGAUCUUCUCGAUCUAACAAAAAAGACAAAUCUGCCACAAAGCUUGAGAGCAUCUUCGGAUGCAGAGGCGGCAGCCUUCGGUGGCGCGAUAGCGCCAACGUUCUCAACUAUGACACGCAAAACGCGUGCUCCGUUGAAUGGAGUUUAUCAUG

Variants of: B1
Test: polymerase ribozyme fitness, log enrichment relative to wild type (log ratio); higher = more active; in vitro selection for triplet polymerase activity
Method in brief: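 Fitness measures genotype enrichment against wild-type enrichment on a logarithmic scale, with inverse-variance-weighted averaging of replicates. The logarithm is base 2, and genotypes were kept only with ≥10 input reads and ≥1 read per output in Illumina sequencing. The sequenced libraries came from one triplicate in vitro selection round, including frozen incubation at −7 °C, of PCR-built, transcribed mutant libraries of each subunit of a heterodimeric triplet polymerase ribozyme.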

Point of comparison: GGAUCUUCUCGAUCUAACAAAAAAGACAAAUCUGCCACAAAGCUUGAGAGCAUCUUCUGAUGCAGAGGCGGCAGCCUUCGGUGGGGCGAUAGCGCCAACGUUCUCAACUAUGACACGCAAAACGCGUGCUCCGUUGAAUGGAGUUUAUCAUG [G58U C85G], “polymerase ribozyme fitness (log ratio)” value -1.61. Against it:
- GGAUCUUCUCGAUCUAACAAAAAAGACAAAUCUGCCACAAAGCUUGAGAGCAUCUUCUGAUGCAGAGGCGGUAGCCUUCGGUGGCGUGAUAGCGCCAAGGUUCUCAACUAUGACACGCAAAACGCGUGCUCCGUUGAAUGCAGUUUAUCAUG [G58U C72U C87U C99G G141C] — lower, ≤ -4.2
- GGAUCUUCUCGAUCUAACAAAAAAGACAAAUCUGCCACAAAGCUUGAGAGCAUCUUCUGAUGCAGAGGAGGCAGCCUUCGGUAGCGCGAUAGCGCCAACGUUCUCAACUAUGACACGCAAAACGCGUGCUCCGUUGAAUGGAGUUUAUCAUG [G58U C69A G83A] — within 0.2 log units, -1.52
- GGAUCUUCUCGAUCUAACAAAAAAGACAAAUCUGCCACAAAGCUUGAGAGCAUCUUCUGAUGCAGAGGCGGCAGCCUUCGGUGGCGCGAUAGCGCCAACGUUCUCAACUAUGACACGCAAAACGCGUGCUCCGUUGAAUGGAGUUUAUCCUG [G58U A150C] — lower, -3.57
- GGAUCUUCUCGAUCUAACAAAAAAGACAAAUCUGCCACAAAGCUUGAGAGCAUCUUCUGAUGCAGAGGCGGCAGCCUUCGGUGGCGCGAUAGCGCCGGCGUUCUCAACUAUGACACUCAAAACGCGUGCUCCGUUGAAUGGAGUUGAUCAUG [G58U A97G A98G G117U U146G] — higher, -0.542
- GGAUCUUCUCGAUCUAACAAAAAAGACAAAUCUGCCACAAAGCUUGAGAGCAUCUUCUGAUGCAGAGGCGGCAGCCUUCGGUGGCGCGAUAGCGCCAACGUUCUCAACUAUGACACGCAAAACGCGUGCUCCGUUGAAUGGCGUUUAUCAUG [G58U A142C] — higher, -0.408
- GGAUCUUCUCGAUCUAACAAAAAAGACAAAUCUGCCACAAAGCUUGAGAGCAUCUUCUGAUGCAGAGGCGGCAGCCUUCGGUGGCGUGAUAGCGCCAACGUUCUCAACUAUGACACGCAAAACGGGUGCUCCGUUGAAUGGAGUUUAUCAUG [G58U C87U C125G] — higher, -0.741
- GGAUCUUCUCGAUCUAACAAAAAAGACAAAUCUGCCACAAAGCUUGAGAGCAUCUUCUGAUGCAGAGGCGGCAGCCUUCGGUGGCGAGAUAGCGCCAACGUUCUCAACCAUGACACGCAAAACGCGUGCUCCGUUGAAUGGAGUUUACCAUG [G58U C87A U109C U148C] — lower, ≤ -4.2
- GGAUCUUCUCGAUCUAACAAAAAAGACAAAUCUGCCACAAAGCUUGAGAGCAUCUUCUGAUGCAGAGGCGGCAGCCUUCGGUGGCGCGAUAGCGCCAACGUUCUCAACUAUGACACGCAAAACGCGUGCUCCGUUGCAUGGAGUUUAUCAUG [G58U A137C] — lower, -3.03
- GGAUCUUCUCGAUCUAACAAAAAAGACAAAUCUGCCACAAAGCUUGAGAGCAUCUUCUGAUGCAGAGGCGGCAGCCUUCGGUGGCGCGAUAGCGCAAACGUUCUCAACUAUGACACGCAAAACGCCUGCUCCGUUGAAUGGAGUUUAUCAUG [G58U C96A G126C] — higher, 0.641
- GGAUCUUCUCGAUCUAACAAAAAAGACAAAUCUGCCACAAAGCUUGAGAGCAUCUUCUGAUGCGGAGGCGGCAGCCUUCGGUGGCGCGAUGGCGCCAACGUUCUCAACUAUGUCACGCAAAACGCGUGCUCCGUAGAAUGGAGUUUAUCAUG [G58U A64G A91G A113U U135A] — lower, ≤ -4.2
- GGAUCUUCUCGAUCUAACAAAAAAGACAAAUCUGCCACAAAGCUUGAGAGCAUCUUCUGAUGCAGAGGCGGCAGACUUCGGUGGCGCGAAAGCGCCAACGUUCUCAACUAUGACACGCAAAACGCGUGCUCCGUUGAAUGGAGUUUAUCAUG [G58U C75A U90A] — lower, ≤ -4.2
- GGAUCUUCUCGAUCUAACAAAAAAGACAAAUCUGCCACAAAGCUUGAGAGCAUCUUCUGAUGCAGAGGCGGCAGCCUUCGGUGGCGCGAUAGCGCCAACGUUCUCAACUAUGACACGCAAAACGCGUGCUCCGUUGAAUGGAGUUUAUCAUG [G58U] — higher, -0.0298
- GGAUCUUCUCGAUCUAACAAAAAAGACAAAUCUGCCACAAAGCUUGAGAGCAUCUUCCGAUGCAGAGGCGGCAGCCUUCGGUGGCGCGAUAGCGCCAACGUUCUCAACUAUGACACGCAAAACGCGUGCUCCGUUGAAUGGAGCUUAUCAUG [G58C U144C] — higher, 0.128
- GGAUCUUCUCGAUCUAACAAAAAAGACAAAUCUGCCACAAAGCUUGAGAGCAUCUUCUGAUGCAGAGGCGGCAGCCUUCGGUGGCGCGAUGGCGCCAACGUUCUCAACUAUGACACGCAAAACGCGUGCUCCGUUGAAUGGAGUUUAUCAUG [G58U A91G] — lower, -2.46
- GGAUCUUCUCGAUCUAACAAAAAAGACAAAUCUGCCACAAAGCUUGAGAGCAUCUUCUGAUGCAGAGGCGGCAGCCUUCGGUGGAGCGAUAGCGGUAACGUUCUCAACUAUGACACGCAAAACGCGUGCUCCGUUGAAUGGAGUUUAUCAUG [G58U C85A C95G C96U] — lower, -3.24
- GGAUCUUCUCGAUCUAACAAAAAAGACAAAUCUGCCACAAAGCUUGAGAGCAUCUUCUGAUGCAGAGGGGGCAGCCUUCGGUGGCGGGAUAGCGCCAACGUUCUCAACUAUGACACGCAAAACGCGUGCUCCGUUGAAUGGAGUUUAUCAUG [G58U C69G C87G] — lower, ≤ -4.2
- GGAUCUUCUCGAUCUAACAAAAAAGACAAAUCUGCCACAAAGCUUGAGAGCAUCUUCUGAUGGAGAGGCGGCAGCCUUCGGUGGCGCGAUAGCGCCAACGUUCUCAACUAUGACACGCAAAACGCGUGCUCCGUUGAAUGGCGUUUAUCAUG [G58U C63G A142C] — higher, -1.41
- GGAUCUUCUCGAUCUAACAAAAAAGACAAAUCUGCCACAAAGCUUGAGAGCAUCUUCCGAUGCAGAGGCGGCAGCCUUCGGUGGCGCGAUAGCGCCAACGUUCUCAACUAUGACACGCAAAACGCGUGCUCCGUUGAACGGAGUUUAUCAUG [G58C U139C] — lower, -3.3

Reference: the RNAGym collection of RNA variant scans (doi:10.1073/pnas.2313332121)
